T1: recombinant human TL1A (human, UniProt O95150 71-251)
T1 construct: homotrimer; biotinylated for SPR capture; the ELISA paragraphs say only 'recombinant TL1A'; also called TNFSF15
T1 chain: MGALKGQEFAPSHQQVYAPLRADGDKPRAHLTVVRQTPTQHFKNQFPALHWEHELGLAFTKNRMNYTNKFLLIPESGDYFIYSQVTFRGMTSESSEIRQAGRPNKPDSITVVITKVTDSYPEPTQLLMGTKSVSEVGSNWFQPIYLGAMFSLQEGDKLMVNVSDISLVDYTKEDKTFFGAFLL

B1: TL1A-0012 (antibody, IgG1, V domains shown)
VH: QVQLVQSGAEVKKPGASVKVSCKASGYDFTYYGISWVRQAPGQGLEWMGWISTYNGNTHYADSLQGRVTMTTDTSTRTAYMELRSLRSDDTAVYYCARENYYGSGAYRGGMDVWGQGTTVTVSS
VL: EIVLTQSPATLSLSPGERATLSCRASQSVSSYLAWYQQKPGQAPRLLIYDASNRATGIPARFSGSGSGTDFTLTISSLEPEDFAVYYCQQRSNWPWTFGQGTKVEIKR
notes: IgG1/kappa variant of TL1A-0002
B2: TL1A-0027 (antibody, IgG1, V domains shown)
VH: QVQLVQSGAEVKKPGASVKVSCKASGYDFTYYGISWVRQAPGQGLEWMGWISAYNGNTNYAQKLQGRVTMTTDTSTRTAYMELRSLRSDDTAVYYCARENYYGSGAYRGGMDVWGQGTTVTVSS
VL: EIVLTQSPATLSLSPGERATLSCRASQSVSSYLAWYQQKPGQAPRLLIYDASNRATGIPARFSGSGSGTDFTLTISSLEPEDFAVYYCQQRSNWPWTFGQGTKVEIKR
notes: as for B1
B3: TL1A-0061 (antibody, IgG1, V domains shown)
VH: QVQLVQSGAEVKKPGASVKVSCKASGFDFTYYGISWVRQAPGQGLEWMGWISTYNGNTHYARMLQGRVTMTTDTSTRTAYMELRSLRSDDTAVYYCARENYYGSGAYRGGMDVWGQGTTVTVSS
VL: EIVLTQSPATLSLSPGERATLSCRASQSVSSYLAWYQQKPGQAPRLLIYDASNRATGIPARFSGSGSGTDFTLTISSLEPEDFAVYYCQQRSNWPWTFGQGTKVEIKR
notes: as for B1
B4: TL1A-0029 (antibody, IgG1, V domains shown)
VH: QVQLVQSGAEVKKPGASVKVSCKASGYDFTYYGISWVRQAPGQGLEWMGWISTYNGNTHYARMLQGRVTMTTDTSTRTAYMELRSLRSDDTAVYYCARENLYGSGAYRGGMDVWGQGTTVTVSS
VL: EIVLTQSPATLSLSPGERATLSCRASQSVSSYLAWYQQKPGQAPRLLIYDASNRATGIPARFSGSGSGTDFTLTISSLEPEDFAVYYCQQRSNWPWTFGQGTKVEIKR
notes: as for B1
B5: TL1A-0030 (antibody, IgG1, V domains shown)
VH: QVQLVQSGAEVKKPGASVKVSCKASGYDFTYYGISWVRQAPGQGLEWMGWISTYNGNTHYARMLQGRVTMTTDTSTRTAYMELRSLRSDDTAVYYCARENYYGSGEYRGGMDVWGQGTTVTVSS
VL: EIVLTQSPATLSLSPGERATLSCRASQSVSSYLAWYQQKPGQAPRLLIYDASNRATGIPARFSGSGSGTDFTLTISSLEPEDFAVYYCQQRSNWPWTFGQGTKVEIKR
notes: as for B1
B6: TL1A-0014 (antibody, IgG1, V domains shown)
VH: QVQLVQSGAEVKKPGASVKVSCKASGYDFTYYGISWVRQAPGQGLEWMGWISTYNGNTHYAQKLQGRVTMTTDTSTRTAYMELRSLRSDDTAVYYCARENYYGSGAYRGGMDVWGQGTTVTVSS
VL: EIVLTQSPATLSLSPGERATLSCRASQSVSSYLAWYQQKPGQAPRLLIYDASNRATGIPARFSGSGSGTDFTLTISSLEPEDFAVYYCQQRSNWPWTFGQGTKVEIKR
notes: as for B1
B7: TL1A-0013 (antibody, IgG1, V domains shown)
VH: QVQLVQSGAEVKKPGASVKVSCKASGYDFTYYGISWVRQAPGQGLEWMGWISTYNGNTHYAPSLQGRVTMTTDTSTRTAYMELRSLRSDDTAVYYCARENYYGSGAYRGGMDVWGQGTTVTVSS
VL: EIVLTQSPATLSLSPGERATLSCRASQSVSSYLAWYQQKPGQAPRLLIYDASNRATGIPARFSGSGSGTDFTLTISSLEPEDFAVYYCQQRSNWPWTFGQGTKVEIKR
notes: as for B1
B8: TL1A-0023 (antibody, IgG1, V domains shown)
VH: QVQLVQSGAEVKKPGASVKVSCKASGYDFTYYGISWVRQAPGQGLEWMGWISTYNGNDHYAPSLQGRVTMTTDTSTRTAYMELRSLRSDDTAVYYCARENYYGSGAYRGGMDVWGQGTTVTVSS
VL: EIVLTQSPATLSLSPGERATLSCRASQSVSSYLAWYQQKPGQAPRLLIYDASNRATGIPARFSGSGSGTDFTLTISSLEPEDFAVYYCQQRSNWPWTFGQGTKVEIKR
notes: as for B1
B9: TL1A-0024 (antibody, IgG1, V domains shown)
VH: QVQLVQSGAEVKKPGASVKVSCKASGYDFTYYGISWVRQAPGQGLEWMGWISTYNGNEHYAPSLQGRVTMTTDTSTRTAYMELRSLRSDDTAVYYCARENYYGSGAYRGGMDVWGQGTTVTVSS
VL: EIVLTQSPATLSLSPGERATLSCRASQSVSSYLAWYQQKPGQAPRLLIYDASNRATGIPARFSGSGSGTDFTLTISSLEPEDFAVYYCQQRSNWPWTFGQGTKVEIKR
notes: as for B1
B10: TL1A-0040 (antibody, IgG1, V domains shown)
VH: QVQLVQSGAEVKKPGASVKVSCKASGYDFTYYGISWVRQAPGQGLEWMGWISTYNGNTHYARMLQGRVTMTTDTSTRTAYMELRSLRSDDTAVYYCARENYYGSGDHRGGMDVWGQGTTVTVSS
VL: EIVLTQSPATLSLSPGERATLSCRASQSVSSYLAWYQQKPGQAPRLLIYDASNRATGIPARFSGSGSGTDFTLTISSLEPEDFAVYYCQQRSNWPWTFGQGTKVEIKR
notes: as for B1
B11: TL1A-0028 (antibody, IgG1, V domains shown)
VH: QVQLVQSGAEVKKPGASVKVSCKASGYDFTYYGISWVRQAPGQGLEWMGWISTYNGNTHYARMLQGRVTMTTDTSTRTAYMELRSLRSDDTAVYYCARENYWGSGAYRGGMDVWGQGTTVTVSS
VL: EIVLTQSPATLSLSPGERATLSCRASQSVSSYLAWYQQKPGQAPRLLIYDASNRATGIPARFSGSGSGTDFTLTISSLEPEDFAVYYCQQRSNWPWTFGQGTKVEIKR
notes: as for B1
B12: TL1A-0026 (antibody, IgG1, V domains shown)
VH: QVQLVQSGAEVKKPGASVKVSCKASGYDFTYYGISWVRQAPGQGLEWMGWISTYNGNEHYADSLQGRVTMTTDTSTRTAYMELRSLRSDDTAVYYCARENYYGSGAYRGGMDVWGQGTTVTVSS
VL: EIVLTQSPATLSLSPGERATLSCRASQSVSSYLAWYQQKPGQAPRLLIYDASNRATGIPARFSGSGSGTDFTLTISSLEPEDFAVYYCQQRSNWPWTFGQGTKVEIKR
notes: as for B1
B13: TL1A-0031 (antibody, IgG1, V domains shown)
VH: QVQLVQSGAEVKKPGASVKVSCKASGYDFTYYGISWVRQAPGQGLEWMGWISTYNGNTHYARMLQGRVTMTTDTSTRTAYMELRSLRSDDTAVYYCARENYYGSGDYRGGMDVWGQGTTVTVSS
VL: EIVLTQSPATLSLSPGERATLSCRASQSVSSYLAWYQQKPGQAPRLLIYDASNRATGIPARFSGSGSGTDFTLTISSLEPEDFAVYYCQQRSNWPWTFGQGTKVEIKR
notes: as for B1
B14: TL1A-0038 (antibody, IgG1, V domains shown)
VH: QVQLVQSGAEVKKPGASVKVSCKASGYDFTYYGISWVRQAPGQGLEWMGWISTYNGNTHYARMLQGRVTMTTDTSTRTAYMELRSLRSDDTAVYYCARENYYGSGDFRGGMDVWGQGTTVTVSS
VL: EIVLTQSPATLSLSPGERATLSCRASQSVSSYLAWYQQKPGQAPRLLIYDASNRATGIPARFSGSGSGTDFTLTISSLEPEDFAVYYCQQRSNWPWTFGQGTKVEIKR
notes: as for B1
B15: TL1A-0019 (antibody, IgG1, V domains shown)
VH: QVQLVQSGAEVKKPGASVKVSCKASGYDFTYYGISWVRQAPGQGLEWMGWISTYNGNTHHARMLQGRVTMTTDTSTRTAYMELRSLRSDDTAVYYCARENYYGSGAYRGGMDVWGQGTTVTVSS
VL: EIVLTQSPATLSLSPGERATLSCRASQSVSSYLAWYQQKPGQAPRLLIYDASNRATGIPARFSGSGSGTDFTLTISSLEPEDFAVYYCQQRSNWPWTFGQGTKVEIKR
notes: as for B1
B16: TL1A-0021 (antibody, IgG1, V domains shown)
VH: QVQLVQSGAEVKKPGASVKVSCKASGYDFTYYGISWVRQAPGQGLEWMGWISTYNGNDHYARMLQGRVTMTTDTSTRTAYMELRSLRSDDTAVYYCARENYYGSGAYRGGMDVWGQGTTVTVSS
VL: EIVLTQSPATLSLSPGERATLSCRASQSVSSYLAWYQQKPGQAPRLLIYDASNRATGIPARFSGSGSGTDFTLTISSLEPEDFAVYYCQQRSNWPWTFGQGTKVEIKR
notes: as for B1
B17: TL1A-0022 (antibody, IgG1, V domains shown)
VH: QVQLVQSGAEVKKPGASVKVSCKASGYDFTYYGISWVRQAPGQGLEWMGWISTYNGNEHYARMLQGRVTMTTDTSTRTAYMELRSLRSDDTAVYYCARENYYGSGAYRGGMDVWGQGTTVTVSS
VL: EIVLTQSPATLSLSPGERATLSCRASQSVSSYLAWYQQKPGQAPRLLIYDASNRATGIPARFSGSGSGTDFTLTISSLEPEDFAVYYCQQRSNWPWTFGQGTKVEIKR
notes: as for B1
B18: TL1A-0033 (antibody, IgG1, V domains shown)
VH: QVQLVQSGAEVKKPGASVKVSCKASGYDFTYYGISWVRQAPGQGLEWMGWISTYNGNTHYARMLQGRVTMTTDTSTRTAYMELRSLRSDDTAVYYCARENYYGSGAFRGGMDVWGQGTTVTVSS
VL: EIVLTQSPATLSLSPGERATLSCRASQSVSSYLAWYQQKPGQAPRLLIYDASNRATGIPARFSGSGSGTDFTLTISSLEPEDFAVYYCQQRSNWPWTFGQGTKVEIKR
notes: as for B1

Target: T1, recombinant human TL1A
Assay: competition ELISA vs bio-TL1A-0002
Method: For this competition ELISA assay procedure, 96-well high binding plates (Corning, product number 3590) were coated with 1 μg/mL recombinant TL1A in 100 μL/well in Phospate Buffered Saline (PBS) overnight at 4° C. Plates were then blocked in PBS+0.02% casein solution and washed with PBS+0.05% Tween-20 following standard ELISA protocol. […] Plates were washed with PBS+0.05% Tween-20 following standard ELISA protocol, and Streptavidin-HRP (Southern Biotech, product number 7100-05) diluted to 1:10,000 in assay buffer was added to plates and incubated for 25-30 minutes at room temperature. Next, the plates were washed with PBS+0.05% Tween-20 following standard ELISA protocol, and then TMB substrate (BioFX Laboratories, catalog number TMBW-0100-01) was added to plates. Reactions were stopped after approximately 5 minutes by adding 0.18 M ortho-phosphoric acid to each well and absorbance was read at 450 nm.
With B1 the “Bioactivity relative to TL1A-0002” value was 1.1 fold and the IC50 was 5 nM. For B2, the “Bioactivity relative to TL1A-0002” value was 1.9 fold and the IC50 was 8.3 nM. With B3 the “Bioactivity relative to TL1A-0002” value was 1 fold and the IC50 was 4.6 nM. B4 was tested, and the “Bioactivity relative to TL1A-0002” value was 1.7 fold and the IC50 was 7.8 nM. For B5, the “Bioactivity relative to TL1A-0002” value was 1.4 fold and the IC50 was 6.1 nM. In the case of B6, the “Bioactivity relative to TL1A-0002” value is reported as 1.1 fold and the IC50 is reported as 5.1 nM. B7 was tested, and the “Bioactivity relative to TL1A-0002” value was 1.2 fold and the IC50 was 5.5 nM. In the case of B8, the “Bioactivity relative to TL1A-0002” value is reported as 1.3 fold and the IC50 is reported as 5.6 nM. B9 was tested, and the “Bioactivity relative to TL1A-0002” value was 1.2 fold and the IC50 was 5.4 nM. B10 was tested, and the “Bioactivity relative to TL1A-0002” value was 1 fold and the IC50 was 4.7 nM. B11 was tested, and the “Bioactivity relative to TL1A-0002” value was 1.2 fold and the IC50 was 5.4 nM. With B12 the “Bioactivity relative to TL1A-0002” value was 2 fold and the IC50 was 8.9 nM. For B13, the “Bioactivity relative to TL1A-0002” value was 1.6 fold and the IC50 was 7.4 nM. B14 was tested, and the “Bioactivity relative to TL1A-0002” value was 1.6 fold and the IC50 was 7.2 nM. In the case of B15, the “Bioactivity relative to TL1A-0002” value is reported as 1.1 fold and the IC50 is reported as 5 nM. With B16 the “Bioactivity relative to TL1A-0002” value was 1.3 fold and the IC50 was 6 nM. B17 was tested, and the “Bioactivity relative to TL1A-0002” value was 1.5 fold and the IC50 was 6.9 nM. With B18 the “Bioactivity relative to TL1A-0002” value was 0.8 fold and the IC50 was 3.6 nM.
